For 4 molecules, koff, Kd and kon results are on record in patent US20240343810A1 (published 2024).

In assay [1] the target is T1, Biotinylated human ICOS protein (human, UniProt Q9Y6W8 21-140, limits assumed, biotinylated (sites not given)).
T1 construct: Captured on the NLC chip in the avidity SPR
T1 sequence: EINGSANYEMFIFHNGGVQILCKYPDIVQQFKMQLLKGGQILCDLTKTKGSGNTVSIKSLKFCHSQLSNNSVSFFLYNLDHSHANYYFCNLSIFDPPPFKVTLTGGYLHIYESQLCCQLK
The assay is described as follows: SPR ProteOn avidity format, biotinylated human ICOS on NLC chip, antibody analyte, 25 C. The procedure:
(§1) Biotinylated human ICOS protein diluted at 7.5 μg/mL in running buffer (1× HBS-EP+ Buffer Technova, cat. No. H8022) was captured on a NLC sensor chip (Bio-Rad, cat No 1765021). The surface was then blocked using biocytin (Sigma Aldrich, cat No B1758) at 1 mg/mL.
(§2) The assay was carried out at 25° C.
(§3) The buffer injection (i.e. 0 nM) was used to double reference the sensorgrams. The analysis was carried out using the equilibrium model inherent to the ProteOn's analysis software for each mAb² construct.

Assay [2] deals with T1, Biotinylated human ICOS protein. The assay is described as follows: SPR ProteOn avidity format, biotinylated human ICOS on NLC chip, antibody analyte; apparent KD from equilibrium, 25 C. How it is done:
as §1, §2, §3

Assay [3] has the same target. The assay is described as follows: SPR ProteOn avidity format, biotinylated human ICOS on NLC chip; calculated on-rate. The procedure:
as §1, §2
The buffer injection (i.e. 0 nM) was used to double reference the sensorgrams. […]

B1: STIM001_289_LAGA (bispecific antibody, V domains shown, not shown: a dimerising Fc or GST)
VH: QVQVVQSGAEVKKPGASVKVSCKASGYTFSTFGITWVRQAPGQGLEWMGWISAYNGDTNYAQNLQGRVIMTTDTSTSTAYMELRSLRSDDTAVYYCARSSGHYYYYGMDVWGQGTTVTVSS
VL: DIVMTQSPLSLPVTPGEPASISCRSSQSLLHSNEYNYLDWYLQKPGQSPQLLIFLGSNRASGVPDRFSGSGSGTDFTLKITRVEAEDVGIYYCMQSLQTPLTFGGGTKVEIK
With B1, in assay [1], the koff (commonly a measure of how fast the partners let go of each other) amounted to 0.000354 s⁻¹. Further, in assay [2], the Kd turned out to be 25.4 nM. Also, the kon (usually the second-order rate constant of association) in assay [3] is 13900 M⁻¹ s⁻¹.

B2: STIM001_457_LAGA (bispecific antibody, V domains shown, not shown: a dimerising Fc or GST)
VH: B1 VH
VL: B1 VL
notes: LAGA variant of STIM001_457
Consider B2, for which, in assay [1], the koff was determined as 0.000332 s⁻¹. Besides, in assay [2], the Kd came out at 10.6 nM. Moreover, the kon in assay [3] was 31300 M⁻¹ s⁻¹.

B3: STIM003_289_LAGA (bispecific antibody, V domains shown, not shown: a dimerising Fc or GST)
VH: EVQLVESGGGVVRPGGSLRLSCVASGVTFDDYGMSWVRQAPGKGLEWVSGINWNGGDTDYSDSVKGRFTISRDNAKNSLYLQMNSLRAEDTALYYCARDFYGSGSYYHVPFDYWGQGILVTVSS
VL: EIVLTQSPGTLSLSPGERATLSCRASQSVSRSYLAWYQQKRGQAPRLLIYGASSRATGIPDRFSGDGSGTDFTLSISRLEPEDFAVYYCHQYDMSPFTFGPGTKVDIK
notes: LAGA variant of STIM003_289
As for B3, the koff in assay [1] came to 0.000278 s⁻¹. Moreover, the Kd in assay [2] worked out at 0.6 nM. In addition, the kon in assay [3] is 477000 M⁻¹ s⁻¹.

B4: STIM003_457_LAGA (bispecific antibody, V domains shown, not shown: a dimerising Fc or GST)
VH: B3 VH
VL: B3 VL
notes: LAGA variant of STIM003_457
In turn, B4 came in with a koff in assay [1] of 0.000232 s⁻¹. In addition, in assay [2], the Kd was determined as 0.8 nM. The kon in assay [3] was 284000 M⁻¹ s⁻¹.
